# Reference: patent publication US20200199241A1 (Chugai, published 2020)
# Numbering of substitutions follows the chain as printed.
# B1: IgG1-F1038 (antibody)
# heavy: QVQLQESGPGLVKPSETLSLTCAVSGHSISHDHAWSWVRQPPGEGLEWIGFISYSGITNYNPSLQGRVTISRDNSKNTLYLQMNSLRAEDTAVYYCARSLARTTAMDYWGEGTLVTVSSASTKGPSVFPLAPSSKSTSGGTAALGCLVKDYFPEPVTVSWNSGALTSGVHTFPAVLQSSGLYSLSSVVTVPSSSLGTQTYICNVNHKPSNTKVDKKVEPKSCDKTHTCPPCPAPELKGGDKVFLFPPKPKDTLYISRTPEVTCVVVDVSHEDPEVKFNWYVDGVEVHNAKTKPREEQYNSTYRVVSVLTVLHQDWLNGKEYKCKVSNKALPAPIEKTISKAKGQPREPQVYTLPPSRDELTKNQVSLTCLVKGFYPSDIAVEWESNGQPENNYKTTPPVLDSDGSFFLYSKLTVDKSRWQQGNVFSCSVMHEALHYHYTQKSLSLSP
# light: not shown
# notes: EU numbering; copies: 2 + 2
# B2: IgG1-F1058 (antibody)
# heavy: B1 heavy with K237L, D240P, K241S, Q388E, Y438V
# light: not shown
# notes: EU numbering; copies: 2 + 2
# B3: IgG1-F1067 (antibody)
# heavy: B1 heavy with K237L, D240P, K241S, S426E, Y438V
# light: not shown
# notes: EU numbering; copies: 2 + 2
# B4: IgG1-F1108 (antibody)
# heavy: B1 heavy with K237L, D240P, K241S, V424K, Y438V
# light: not shown
# notes: EU numbering; copies: 2 + 2
# B5: IgG1-F1102 (antibody)
# heavy: B1 heavy with K237L, D240P, K241S, T309Q, Q313A, K328D, L330Y
# light: not shown
# notes: EU numbering; copies: 2 + 2
# B6: IgG1-F1042 (antibody)
# heavy: B1 heavy with D240P, T309A, Q313H
# light: not shown
# notes: EU numbering; copies: 2 + 2
# B7: IgG1-F1043 (antibody)
# heavy: B1 heavy with D240P, T252V, V310P
# light: not shown
# notes: EU numbering; copies: 2 + 2
# B8: IgG1-F1097 (antibody)
# heavy: B1 heavy with K237L, D240P, K241S, G387N, P389S
# light: not shown
# notes: EU numbering; copies: 2 + 2
# B9: IgG1-F1082 (antibody)
# heavy: B1 heavy with K237L, D240P, K241S, Q440N
# light: not shown
# notes: EU numbering; copies: 2 + 2
# B10: IgG1-F1106 (antibody)
# heavy: B1 heavy with K237L, D240P, K241S, Y438V, Q440R, S442E
# light: not shown
# notes: EU numbering; copies: 2 + 2
# B11: IgG1-F1059 (antibody)
# heavy: B1 heavy with K237L, D240P, K241S, Q388R, Y438V
# light: not shown
# notes: EU numbering; copies: 2 + 2
# B12: IgG1-F1077 (antibody)
# heavy: B1 heavy with K237L, D240P, K241S, K250N
# light: not shown
# notes: EU numbering; copies: 2 + 2
# B13: IgG1-F1073 (antibody)
# heavy: B1 heavy with K237L, D240P, K241S, Y438V, S442R
# light: not shown
# notes: EU numbering; copies: 2 + 2
# B14: IgG1-F1044 (antibody)
# heavy: B1 heavy with D240P, T252V, T309Q, V310P, Q313A
# light: not shown
# notes: EU numbering; copies: 2 + 2
# B15: IgG1-F1061 (antibody)
# heavy: B1 heavy with K237L, D240P, K241S, P389E, Y438V
# light: not shown
# notes: EU numbering; copies: 2 + 2
# B16: IgG1-F1104 (antibody)
# heavy: B1 heavy with K237L, D240P, K241S, V424E, S426R, Y438V
# light: not shown
# notes: EU numbering; copies: 2 + 2
# B17: IgG1-F1105 (antibody)
# heavy: B1 heavy with K237L, D240P, K241S, V424S, S426R, Y438V
# light: not shown
# notes: EU numbering; copies: 2 + 2
# B18: IgG1-F1041 (antibody)
# heavy: B1 heavy with D240P, T252V, T309Q, V310P, Q313A, Y438V
# light: not shown
# notes: EU numbering; copies: 2 + 2
# B19: IgG1-F1074 (antibody)
# heavy: B1 heavy with K237L, D240P, K241D, Y438V
# light: not shown
# notes: EU numbering; copies: 2 + 2
# B20: IgG1-F1100 (antibody)
# heavy: B1 heavy with K237L, D240P, K241D, K328D, L330Y
# light: not shown
# notes: EU numbering; copies: 2 + 2
# B21: IgG1-F1045 (antibody)
# heavy: B1 heavy with D240P, T309Q, V310P, Q313A
# light: not shown
# notes: EU numbering; copies: 2 + 2
# B22: IgG1-F1114 (antibody)
# heavy: B1 heavy with K237L, D240P, K241S, Y438V, S442Q
# light: not shown
# notes: EU numbering; copies: 2 + 2
# B23: IgG1-F1101 (antibody)
# heavy: B1 heavy with K237L, D240P, K241D, T309Q, Q313A
# light: not shown
# notes: EU numbering; copies: 2 + 2
# B24: IgG1-F1107 (antibody)
# heavy: B1 heavy with K237L, D240P, K241S, V424D, Y438V
# light: not shown
# notes: EU numbering; copies: 2 + 2
# B25: IgG1-F1110 (antibody)
# heavy: B1 heavy with K237L, D240P, K241S, V424Q, Y438V
# light: not shown
# notes: EU numbering; copies: 2 + 2
# B26: IgG1-F1098 (antibody)
# heavy: B1 heavy with K237L, D240P, K241D
# light: not shown
# notes: EU numbering; copies: 2 + 2
# B27: IgG1-F1095 (antibody)
# heavy: B1 heavy with K237L, D240P, K241S, S385N, G387S
# light: not shown
# notes: EU numbering; copies: 2 + 2
# B28: IgG1-F1068 (antibody)
# heavy: B1 heavy with K237L, D240P, K241S, S426R, Y438V
# light: not shown
# notes: EU numbering; copies: 2 + 2
# B29: IgG1-F1065 (antibody)
# heavy: B1 heavy with K237L, D240P, K241S, V424R, Y438V
# light: not shown
# notes: EU numbering; copies: 2 + 2
# B30: IgG1-F1048 (antibody)
# heavy: B1 heavy with D240P, T309A, Q313H, Y438V
# light: not shown
# notes: EU numbering; copies: 2 + 2
# B31: IgG1-F1066 (antibody)
# heavy: B1 heavy with K237L, D240P, K241S, V424S, Y438V
# light: not shown
# notes: EU numbering; copies: 2 + 2
# B32: IgG1-F1112 (antibody)
# heavy: B1 heavy with K237L, D240P, K241S, Y438V, Q440K
# light: not shown
# notes: EU numbering; copies: 2 + 2
# B33: IgG1-F1051 (antibody)
# heavy: B1 heavy with K237R, D240P, T252V, N288E, T309Q, V310P, Q313A, M430I, Y438V
# light: not shown
# notes: EU numbering; copies: 2 + 2
# B34: IgG1-F1046 (antibody)
# heavy: B1 heavy with D240P, T252V, N288E, T309Q, V310P, Q313A, Y438V
# light: not shown
# notes: EU numbering; copies: 2 + 2
# B35: IgG1-F1069 (antibody)
# heavy: B1 heavy with K237L, D240P, K241S, Y438V, Q440E
# light: not shown
# notes: EU numbering; copies: 2 + 2
# B36: IgG1-F1062 (antibody)
# heavy: B1 heavy with K237L, D240P, K241S, P389R, Y438V
# light: not shown
# notes: EU numbering; copies: 2 + 2
# B37: IgG1-F1064 (antibody)
# heavy: B1 heavy with K237L, D240P, K241S, V424E, Y438V
# light: not shown
# notes: EU numbering; copies: 2 + 2
# B38: IgG1-F1096 (antibody)
# heavy: B1 heavy with K237L, D240P, K241S, Q388T
# light: not shown
# notes: EU numbering; copies: 2 + 2
# B39: IgG1-F1094 (antibody)
# heavy: B1 heavy with K237L, D240P, K241S, S444N
# light: not shown
# notes: EU numbering; copies: 2 + 2
# B40: IgG1-F1063 (antibody)
# heavy: B1 heavy with K237L, D240P, K241S, P389S, Y438V
# light: not shown
# notes: EU numbering; copies: 2 + 2
# B41: IgG1-F1050 (antibody)
# heavy: B1 heavy with K237L, D240P, K241S, T252V, N288E, T309Q, V310P, Q313A, M430I, Y438V
# light: not shown
# notes: EU numbering; copies: 2 + 2
# B42: IgG1-F1053 (antibody)
# heavy: B1 heavy with K237R, D240P, T252V, T309Q, Q313A, Y438V
# light: not shown
# notes: EU numbering; copies: 2 + 2
# B43: IgG1-F1070 (antibody)
# heavy: B1 heavy with K237L, D240P, K241S, Y438V, Q440R
# light: not shown
# notes: EU numbering; copies: 2 + 2
# B44: IgG1-F1111 (antibody)
# heavy: B1 heavy with K237L, D240P, K241S, S426K, Y438V
# light: not shown
# notes: EU numbering; copies: 2 + 2
# B45: IgG1-F1047 (antibody)
# heavy: B1 heavy with D240P, N288E, T309Q, V310P, Q313A, Y438V
# light: not shown
# notes: EU numbering; copies: 2 + 2
# B46: IgG1-F1109 (antibody)
# heavy: B1 heavy with K237L, D240P, K241S, V424T, Y438V
# light: not shown
# notes: EU numbering; copies: 2 + 2
# B47: IgG1-F1103 (antibody)
# heavy: B1 heavy with K237L, D240P, K241D, T309Q, Q313A, K328D, L330Y
# light: not shown
# notes: EU numbering; copies: 2 + 2
# B48: IgG1-F1040 (antibody)
# heavy: B1 heavy with D240P, T252V, Y438V
# light: not shown
# notes: EU numbering; copies: 2 + 2
# B49: IgG1-F1052 (antibody)
# heavy: B1 heavy with K237R, D240P, N288E, T309Q, V310P, Q313A, M430I, Y438V
# light: not shown
# notes: EU numbering; copies: 2 + 2
# B50: IgG1-F1115 (antibody)
# heavy: B1 heavy with K237L, D240P, K241S, S426N, Y438V
# light: not shown
# notes: EU numbering; copies: 2 + 2
# B51: IgG1-F1075 (antibody)
# heavy: B1 heavy with K237L, D240P, K241S, K328D, L330Y, Y438V
# light: not shown
# notes: EU numbering; copies: 2 + 2
# B52: IgG1-F1116 (antibody)
# heavy: B1 heavy with K237L, D240P, K241S, T309Q, Q313A, S426N
# light: not shown
# notes: EU numbering; copies: 2 + 2
# B53: IgG1-F1080 (antibody)
# heavy: B1 heavy with K237L, D240P, K241S, S426N
# light: not shown
# notes: EU numbering; copies: 2 + 2
# B54: IgG1-F1081 (antibody)
# heavy: B1 heavy with K237L, D240P, K241S, Y438N, Q440T
# light: not shown
# notes: EU numbering; copies: 2 + 2
# B55: IgG1-F1083 (antibody)
# heavy: B1 heavy with K237L, D240P, K241S, S442N
# light: not shown
# notes: EU numbering; copies: 2 + 2
# Target: T1, soluble human FcRn complexed with β2-microglobulin (human, UniProt P61769 21-119, limits assumed)
# T1 construct: also called hFcRn
# Assay: Biacore SPR, pH 7.0;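 also: test antibodies captured on a Protein L chip with human FcRn flowed over as analyte, KD obtained as the ratio of dissociation to association rate constants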
# T1 sequence (chain, as listed by the source limits assumed, chain 1 of 2): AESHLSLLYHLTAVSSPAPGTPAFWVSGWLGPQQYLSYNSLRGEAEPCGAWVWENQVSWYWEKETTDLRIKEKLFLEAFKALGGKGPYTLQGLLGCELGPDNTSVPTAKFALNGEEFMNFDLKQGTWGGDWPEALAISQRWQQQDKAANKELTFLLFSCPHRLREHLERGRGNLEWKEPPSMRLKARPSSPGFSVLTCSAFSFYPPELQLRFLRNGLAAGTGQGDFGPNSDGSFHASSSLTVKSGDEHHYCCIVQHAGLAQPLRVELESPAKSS
# T1 sequence (P61769 21-119 limits assumed, chain 2 of 2): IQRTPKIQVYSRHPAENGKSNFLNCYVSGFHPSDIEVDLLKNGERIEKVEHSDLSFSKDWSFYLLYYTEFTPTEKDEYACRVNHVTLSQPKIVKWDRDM
row,Binder,Kd [nM]
1,B1,280
2,B2,131
3,B3,126
4,B4,126
5,B5,64.6
6,B6,200
7,B7,52
8,B8,282
9,B9,276
10,B10,142
11,B11,139
12,B12,2030
13,B13,134
14,B14,35
15,B15,119
16,B16,177
17,B17,154
18,B18,14
19,B19,132
20,B20,241
21,B21,25
22,B22,131
23,B23,65.9
24,B24,123
25,B25,133
26,B26,258
27,B27,286
28,B28,169

row,Binder,Kd [nM]
1,B29,138
2,B30,99
3,B31,145
4,B32,123
5,B33,3.9
6,B34,4.5
7,B35,139
8,B36,120
9,B37,132
10,B38,272
11,B39,260
12,B40,143
13,B41,3.5
14,B42,42.3
15,B43,173
16,B44,165
17,B45,3.4
18,B46,127
19,B47,61.1
20,B48,200
21,B49,3.2
22,B50,135
23,B51,140
24,B52,74.4
25,B53,319
26,B54,620
27,B55,345
